According to doi:10.1101/2021.12.21.473719:

Biological target: POPDC1 tagged with Venus (YFP acceptor for FLIM-FRET with TREK-1) (mouse) (UniProt Q9ES83)
Test: FRET or BRET

POPDC1 tagged with Venus (YFP acceptor for FLIM-FRET with TREK-1) (mouse), sequence (Q9ES83 whole entry): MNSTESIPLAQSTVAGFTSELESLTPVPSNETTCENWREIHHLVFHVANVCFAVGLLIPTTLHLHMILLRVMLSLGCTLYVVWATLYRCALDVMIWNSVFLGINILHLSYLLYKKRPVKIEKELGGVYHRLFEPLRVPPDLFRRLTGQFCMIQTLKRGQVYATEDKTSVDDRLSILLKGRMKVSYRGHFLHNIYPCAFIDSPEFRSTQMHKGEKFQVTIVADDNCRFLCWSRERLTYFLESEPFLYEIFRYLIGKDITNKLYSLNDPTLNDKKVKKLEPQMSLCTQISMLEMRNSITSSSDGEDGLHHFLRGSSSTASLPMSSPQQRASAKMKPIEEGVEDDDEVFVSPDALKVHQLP
Cerulean-TREK-1 (natural protein), sequence (O95069 whole entry): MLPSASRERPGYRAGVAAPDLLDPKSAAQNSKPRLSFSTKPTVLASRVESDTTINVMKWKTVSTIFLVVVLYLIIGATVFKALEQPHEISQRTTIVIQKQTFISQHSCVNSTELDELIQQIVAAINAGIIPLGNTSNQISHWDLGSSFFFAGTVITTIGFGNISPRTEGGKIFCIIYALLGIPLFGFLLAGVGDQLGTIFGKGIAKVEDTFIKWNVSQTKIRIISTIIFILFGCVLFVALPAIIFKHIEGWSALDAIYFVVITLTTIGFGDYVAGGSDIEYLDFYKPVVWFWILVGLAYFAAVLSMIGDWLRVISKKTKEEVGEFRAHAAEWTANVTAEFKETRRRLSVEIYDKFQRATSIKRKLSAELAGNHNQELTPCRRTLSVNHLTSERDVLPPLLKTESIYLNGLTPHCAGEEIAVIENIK

FRET efficiency: 18%
Substance: Cerulean-TREK-1 (natural protein)
